Measurements: patent US20260132219A1
pKd: −log10 of the molar value.

Assays:
human HER3 (human) = human HER3 (human) (UniProt Q02297); experiment: BLI; presence of human NRG1
human HER3 = human HER3 (UniProt P21860); experiment: BLI; absence of human NRG1

pKd (human HER3 (human)): 7.77 | pKd (human HER3): > 12.00
Substance: LJM-716
